pKd: −log10 of the molar value. Values joined by “and” are separate entries in the source; they are usually repeats but may differ in a detail not shown here. Identical values can stand only once.
Columns and labels:
[1] = molecular target: His6-SeSepF (Spiroplasma eriocheiris SepF) (Spiroplasma eriocheiris); assay: BLI; His6-SeSepF immobilised on Ni-NTA biosensor tips (10 ug/ml), SeFtsZ or SeFtsZ L272E as analyte (0-100 ug/ml); Octet N1; 50 mM Tris-HCl pH 7.4, 100 mM KCl, 10 mM MgCl2, 0.02% Tween-20; no nucleotide (apo)
[2] = molecular target: His6-SeSepF (Spiroplasma eriocheiris SepF) (Spiroplasma eriocheiris); assay: BLI; as a1, in the presence of GTP
[3] = molecular target: His6-SeFtsZ (Spiroplasma eriocheiris FtsZ) (Spiroplasma eriocheiris)

His6-SeSepF (Spiroplasma eriocheiris SepF) (Spiroplasma eriocheiris), sequence (partner, as listed by the source): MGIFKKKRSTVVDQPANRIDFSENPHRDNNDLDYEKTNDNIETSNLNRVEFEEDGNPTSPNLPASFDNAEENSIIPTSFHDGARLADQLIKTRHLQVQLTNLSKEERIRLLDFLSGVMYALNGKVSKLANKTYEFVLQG

SeFtsZ retrieved from the pellet fraction with GTP after mixing with SeSepF (sedimentation assay of polymerization; 16% without SeSepF) [3] [%]	Substance	pKd [1]	pKd [2]
	SeFtsZ L272E mutant (from UniProt A0A0H3XMR3 1-411) (natural protein)	6.01	6.15
28	His6-SeSepF (Spiroplasma eriocheiris SepF) (natural protein)		
	Spiroplasma eriocheiris FtsZ, His-tag removed (from UniProt A0A0H3XMR3 1-411) (natural protein)	5.98 and 5.95	4.27
